The results in this text go back to doi:10.1101/2021.12.29.474402.

The assay deals with SARS-CoV-2 Omicron (B.1.1.529) spike, prefusion-stabilized soluble trimeric ectodomain (S-trimer) (SARS-CoV-2 | bacteriophage T4) (UniProt P0DTC2). Put plainly: cryo-EM structure.

Chain of human ACE2 (Q9BYF1 19-612): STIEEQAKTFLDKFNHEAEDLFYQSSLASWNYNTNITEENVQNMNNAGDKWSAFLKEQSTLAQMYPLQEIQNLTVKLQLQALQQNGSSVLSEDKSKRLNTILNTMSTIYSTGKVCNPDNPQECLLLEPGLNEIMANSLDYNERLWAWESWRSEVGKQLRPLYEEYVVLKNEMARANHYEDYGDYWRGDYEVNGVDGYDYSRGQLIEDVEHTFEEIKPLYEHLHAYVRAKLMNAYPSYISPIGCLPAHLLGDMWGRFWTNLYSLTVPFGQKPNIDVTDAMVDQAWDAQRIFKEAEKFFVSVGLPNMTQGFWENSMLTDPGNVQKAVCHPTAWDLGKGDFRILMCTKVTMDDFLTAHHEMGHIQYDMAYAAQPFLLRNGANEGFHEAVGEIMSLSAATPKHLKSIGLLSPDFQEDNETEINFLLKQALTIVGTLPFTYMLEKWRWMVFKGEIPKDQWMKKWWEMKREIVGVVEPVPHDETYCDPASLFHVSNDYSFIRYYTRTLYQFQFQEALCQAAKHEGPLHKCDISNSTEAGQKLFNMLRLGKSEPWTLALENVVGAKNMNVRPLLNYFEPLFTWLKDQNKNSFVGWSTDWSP

On to “human ACE2 (from UniProt Q9BYF1) (receptor)”, for which the stoichiometry N (ACE2 per S-trimer) came to 2.
